Target: DHR2 domain of human DOCK5 (residues I1212-L1642) (human)
Test: SEC-SAXS; unbound DOCK5^DHR2 at 80 μM; BioSEC-3 column; 20 mM Tris pH 8.0, 150 mM NaCl, 0.5 mM EDTA; 295 K

How did the stoichiometry N turn out when “DHR2 domain of human DOCK5 (residues I1212-L1642) (domain or fragment)” was run?
Its stoichiometry N is 2.

Source: article PMC5663973
